According to patent EP4803546A1 (Beijing Wisdomab Biotechnology Co., Ltd, dated 2026):
Like-named read-outs stand apart in the source and are kept apart here.

Key:
[1] = molecular target: T1, MIP-P3-His (disulfide trap single-chain trimer of PRAME antigen peptide … and HLA-A24, His tag) (human); experiment: SPR, Biacore T200, as in Section 2.3; MIP-P3-His as analyte
T1 construct: Single polypeptide; His tag added at the C-terminus; also called dtSCT; MIP-P3-His fusion protein

[2] = molecular target: HLA-A24/PRAME complex: PRAME301-309 (…) presented by HLA-A24 on cells (human; human (homo sapiens)); experiment: cell-based or functional assay
[3] = molecular target: HLA-A24 complex with Similar Peptide Segment 8 (…, XCR1) on cells (human; human (homo sapiens)); experiment: cell-based or functional assay
[4] = molecular target: HLA-A24 complex with Similar Peptide Segment 12 (…, CPVL) on cells (human; human (homo sapiens)); experiment: cell-based or functional assay
[5] = molecular target: HLA-A24 complex with Similar Peptide Segment 11 (…, KIFBP) on cells (human; human (homo sapiens)); experiment: cell-based or functional assay
[6] = molecular target: HLA-A24 complex with Similar Peptide Segment 16 (…, PLD1) on cells (human; human (homo sapiens)); experiment: cell-based or functional assay
[7] = molecular target: T2, CD3 (recombinant, as analyte of Table 4) (human (homo sapiens), UniProt P07766 23-126; P04234 22-105); experiment: SPR, Biacore T200, as in Section 2.3; CD3 as analyte
T2 construct: That the analyte was a CD3E/CD3D pair is an inference; also called hCD3E; hCD3D
T2 sequence (P07766 23-126, chain 1 of 2): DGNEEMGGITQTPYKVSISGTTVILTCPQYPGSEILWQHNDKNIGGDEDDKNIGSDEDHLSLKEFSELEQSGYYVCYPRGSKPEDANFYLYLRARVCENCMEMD
T2 sequence (P04234 22-105, chain 2 of 2): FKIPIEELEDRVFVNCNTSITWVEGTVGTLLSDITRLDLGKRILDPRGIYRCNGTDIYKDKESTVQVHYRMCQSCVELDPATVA

[8] = molecular target: T1, MIP-P3-His (disulfide trap single-chain …); experiment: SPR, Biacore T200, as in Section 2.3; MIP-P3-His as analyte; remark: listed apart in the source

B1: humanized bispecific antibody 2N83G3-h5×IMCR (bispecific antibody)
chain 1: EVQLVESGGGLVKPGGSLRLSCAASGASLDIYVMGWYRQAPGKGLELVAVITGSGNTNYADSVKGRFTISRDDSKNTLYLQMNSLKTEDTAVYYCAGGRPSRYYRDSGTWADFWGQGTTVTVSSGGGGSGGGGSGGGGSEVQLVESGGGLVKPGGSLRLSCAASGASLDIYVMGWYRQAPGKGLELVAVITGSGNTNYADSVKGRFTISRDDSKNTLYLQMNSLKTEDTAVYYCAGGRPSRYYRDSGTWADFWGQGTTVTVSSASERKSSVECPPCPAPEFEGGPSVFLFPPKPKDTLMISRTPEVTCVVVDVSQEDPEVQFNWYVDGVEVHNAKTKPREEQYNSTYRVVSVLTVLHQDWLNGKEYKCKVSNKALPASIEKTISKAKGQPREPQVCTLPPSQEEMTKNQVSLSCAVKGFYPSDIAVEWESNGQPENNYKTTPPVLDSDGSFFLVSKLTVDKSRWQEGNVFSCSVMHEALHNHYTQKSLSLSPGK
chain 2: not shown
notes: Arm 1 is 2N83G3-h5-G1m3-FcH1n1 (two tandem N83G3-h5 VHH on the hole Fc); Arm 2 is IMCR-scFv-G1m3-FcKn1 (anti-CD3 scFv on the knob Fc); also called 2N83G3-h5×IMCR BsAb
Kd [1]: 0.065 nM | koff [1]: 8.06e-05 s⁻¹ | kon [1]: 1.24e+06 M⁻¹ s⁻¹ | EC50 Value (nM) mediating the Activation of Jurkat-Dual Cells [2]: 0.011 nM | EC50 Value (nM) mediating the Activation of Jurkat-Dual Cells [3]: 3.71 nM | EC50 Value (nM) mediating the Activation of Jurkat-Dual Cells [4]: 5.32 nM | EC50 Value (nM) mediating the Activation of Jurkat-Dual Cells [5]: 1.02 nM | EC50 Value (nM) mediating the Activation of Jurkat-Dual Cells [6]: 1.07 nM

B2: bispecific antibody 2N83G3×IMCR (bispecific antibody)
chain 1: QVQLVESGGGLVQAGGSLRLSCAASGASLDIYVMGWYRQATGKERDLVAVITGSGNTNYADSVKGRFTISRDDAKNTLYLQMSSLKPEDTAVYYCAGGRPSRYYRDSGTWADFWGQGTQVTVSSGGGGSGGGGSGGGGSQVQLVESGGGLVQAGGSLRLSCAASGASLDIYVMGWYRQATGKERDLVAVITGSGNTNYADSVKGRFTISRDDAKNTLYLQMSSLKPEDTAVYYCAGGRPSRYYRDSGTWADFWGQGTQVTVSSASERKSSVECPPCPAPEFEGGPSVFLFPPKPKDTLMISRTPEVTCVVVDVSQEDPEVQFNWYVDGVEVHNAKTKPREEQYNSTYRVVSVLTVLHQDWLNGKEYKCKVSNKALPASIEKTISKAKGQPREPQVCTLPPSQEEMTKNQVSLSCAVKGFYPSDIAVEWESNGQPENNYKTTPPVLDSDGSFFLVSKLTVDKSRWQEGNVFSCSVMHEALHNHYTQKSLSLSPGK
chain 2: not shown
notes: Arm 1 is 2N83G3-G1m3-FcH1n1 (two tandem N83G3 VHH on the hole Fc); Arm 2 is IMCR-ScFv-G1m3-FcKn1 (anti-CD3 scFv on the knob Fc); also called 2N83G3×IMCR BsAb
Kd [1]: 0.0544 nM | koff [1]: 7.65e-05 s⁻¹ | kon [1]: 1.41e+06 M⁻¹ s⁻¹ | Kd [7]: 4.57 nM | koff [7]: 0.000245 s⁻¹ | kon [7]: 53600 M⁻¹ s⁻¹

B3: N83G3-h5 humanized single-domain antibody (Fc fusion)
VHH: EVQLVESGGGLVKPGGSLRLSCAASGASLDIYVMGWYRQAPGKGLELVAVITGSGNTNYADSVKGRFTISRDDSKNTLYLQMNSLKTEDTAVYYCAGGRPSRYYRDSGTWADFWGQGTTVTVSS
notes: also called humanized mutant N83G3-h5; humanized molecule N83G3-h5
Kd [8]: 0.0747 nM | koff [8]: 5.52e-05 s⁻¹ | kon [8]: 737000 M⁻¹ s⁻¹
